In general, Kd refers to a measure of binding affinity in units of concentration.

Starred links: 1 amine or outer side, 2 acyl side, 3 side chain; linkers in the order of their positions; H or OH if unused. Positions of bridges follow the written chain, without caps; N, C: chain ends. Non-standard residues stand in square brackets, D forms with d. Phe(4-OMe) = COc1ccc(C[C@H](N[*:1])C(=O)[*:2])cc1; Trp(5-F) = N[C@@H](Cc1c[nH]c2ccc(F)cc12)C(=O)O; mXylylene = c1cc(C[*:1])cc(C[*:2])c1; αMeP = C[C@@]1(C(=O)O)CCCN1; Mpa = O=C(O)CCS

From patent publication US20210284694A1 (published 2021) come the findings set out here.

Assay [1] has as its target T1, biotinylated PCSK9 (UniProt Q8NBP7 31-692, limits assumed, biotinylated).
T1 construct: also called europium-labeled PCSK9
The assay can be described thus: method of the KD not told; tracer of the Alexa FRET Standard assay.

Assay [2] has as its target T1, biotinylated PCSK9. As to the kind of experiment: method of the KD not told; tracer of the Alexa FRET Plus assay.

T1 sequence (Q8NBP7 31-692 limits assumed): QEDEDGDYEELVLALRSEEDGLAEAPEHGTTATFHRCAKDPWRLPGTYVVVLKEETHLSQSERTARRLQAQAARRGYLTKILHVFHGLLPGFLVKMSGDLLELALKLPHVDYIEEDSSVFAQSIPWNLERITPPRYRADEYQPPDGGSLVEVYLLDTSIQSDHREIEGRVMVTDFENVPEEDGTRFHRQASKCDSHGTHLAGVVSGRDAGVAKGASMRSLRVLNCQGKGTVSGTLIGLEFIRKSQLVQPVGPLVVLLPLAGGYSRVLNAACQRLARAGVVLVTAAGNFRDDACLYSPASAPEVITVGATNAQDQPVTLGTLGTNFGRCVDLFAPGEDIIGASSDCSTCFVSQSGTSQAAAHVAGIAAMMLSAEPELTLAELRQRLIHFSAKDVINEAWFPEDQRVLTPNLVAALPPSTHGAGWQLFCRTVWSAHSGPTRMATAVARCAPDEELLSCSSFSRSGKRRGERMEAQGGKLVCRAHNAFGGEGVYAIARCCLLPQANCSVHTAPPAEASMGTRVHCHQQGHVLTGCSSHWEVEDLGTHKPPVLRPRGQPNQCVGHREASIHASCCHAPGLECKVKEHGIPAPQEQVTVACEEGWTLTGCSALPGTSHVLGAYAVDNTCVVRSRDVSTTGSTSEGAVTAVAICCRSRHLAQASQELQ

B1: Reagent A (peptide)
peptide: [Mpa]K(AlexaFluor647)G[Trp(5-F)][Trp(5-F)]DHY[αMeP]C-NH2
modifications: linker N-10 via mXylylene
notes: also called AlexaFluor647 (AF) tagged cyclic peptide; AF cyclic peptide
In assay [1], B1 yielded a Kd of 83 nM.

B2: Reagent B (peptide)
peptide: [Mpa]K(AlexaFluor647)[dA][Trp(5-F)][Trp(5-F)]DH[Phe(4-OMe)][αMeP]C-NH2
modifications: linker N-10 via mXylylene
notes: as for B1
Turning to B2, in assay [2], the Kd was found to be 35 nM.
